This data set concerns the molecule itself. Nature of the data set: crystal structure; crystals of free human Nudt16 (2.3 Å, with 100 mM MES pH 5.5) and of Nudt16 incubated with 5 mM FAD (2.7 Å); sitting drop at 20°C, 0.2 M ammonium chloride, 20% PEG 3350.

The results in this text go back to article PMC7337524, “Mammalian Nudix proteins cleave nucleotide metabolite caps on RNAs” (Nucleic Acids Research, 2020).

B1: human Nudt16 (residues 1-184) (enzyme, UniProt Q96DE0 1-184, looked up)
chain: MAGARRLELGEALALGSGWRHACHALLYAPDPGMLFGRIPLRYAILMQMRFDGRLGFPGGFVDTQDRSLEDGLNRELREELGEAAAAFRVERTDYRSSHVGSGPRVVAHFYAKRLTLEELLAVEAGATRAKDHGLEVLGLVRVPLYTLRDGVGGLPTFLENSFIGSAREQLLEALQDLGLLQSG
notes: Nudt16, human, residues 1-184, cloned into a modified pET28a vector; Seen as a dimer in both crystal forms, free and with FAD; PDB 3COU is the cited search model for molecular replacement; also called free human Nudt16; source: E. coli BL21(DE3), purified (Ni-NTA, UlpI cleavage, heparin column, Sephacryl S-200); not shown: His6, N-terminal, cleaved; yeast SMT3 SUMO, N-terminal, cleaved
With B1, the binding result was “binds”.
